Literature values in patent US6294648A, “Protein having proteinase inhibitor activity” (Bayer Corporation, priority 1999, dated 2001).
Like-named read-outs stand apart in the source and are kept apart here.

Experiments:
proteinase 3 = target: T1, proteinase 3 (Homo sapiens, UniProt P24158)
T1 sequence (P24158 28-256): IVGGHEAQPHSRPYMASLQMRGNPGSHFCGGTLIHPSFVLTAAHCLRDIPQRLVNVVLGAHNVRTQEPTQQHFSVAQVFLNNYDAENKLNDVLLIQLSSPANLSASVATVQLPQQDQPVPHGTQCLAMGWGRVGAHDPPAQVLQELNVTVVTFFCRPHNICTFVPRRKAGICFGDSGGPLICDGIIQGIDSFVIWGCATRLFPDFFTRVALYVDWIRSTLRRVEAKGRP

cathepsin G = target: T2, cathepsin G (Homo sapiens, UniProt P08311)
T2 sequence (P08311 21-255): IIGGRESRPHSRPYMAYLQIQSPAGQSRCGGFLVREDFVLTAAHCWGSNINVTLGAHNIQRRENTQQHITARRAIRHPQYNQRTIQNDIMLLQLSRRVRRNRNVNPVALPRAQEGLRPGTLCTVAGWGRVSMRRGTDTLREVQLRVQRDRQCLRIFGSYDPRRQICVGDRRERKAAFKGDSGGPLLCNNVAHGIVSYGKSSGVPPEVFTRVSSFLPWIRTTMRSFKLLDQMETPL

leukocyte elastase = target: T3, leukocyte elastase (Homo sapiens, UniProt P08246)
T3 sequence (P08246 30-267): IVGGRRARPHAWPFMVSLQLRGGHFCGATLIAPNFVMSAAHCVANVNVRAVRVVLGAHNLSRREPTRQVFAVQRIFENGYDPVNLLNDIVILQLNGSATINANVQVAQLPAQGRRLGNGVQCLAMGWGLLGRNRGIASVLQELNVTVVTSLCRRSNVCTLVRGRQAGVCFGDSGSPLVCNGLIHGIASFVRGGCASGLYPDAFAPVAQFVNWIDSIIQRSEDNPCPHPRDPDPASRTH

plasmin = plasmin (Homo sapiens, UniProt P00747)
Chain of plasmin (P00747 581-810 limits assumed, species assumed): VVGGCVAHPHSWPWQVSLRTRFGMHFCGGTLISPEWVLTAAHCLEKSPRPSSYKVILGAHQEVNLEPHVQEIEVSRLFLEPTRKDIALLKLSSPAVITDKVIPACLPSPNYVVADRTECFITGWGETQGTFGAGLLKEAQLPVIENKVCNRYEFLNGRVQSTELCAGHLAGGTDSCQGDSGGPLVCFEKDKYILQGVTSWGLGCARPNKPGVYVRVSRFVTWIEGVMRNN
Chain of plasmin (P00747 97-580 partner limits assumed, species assumed): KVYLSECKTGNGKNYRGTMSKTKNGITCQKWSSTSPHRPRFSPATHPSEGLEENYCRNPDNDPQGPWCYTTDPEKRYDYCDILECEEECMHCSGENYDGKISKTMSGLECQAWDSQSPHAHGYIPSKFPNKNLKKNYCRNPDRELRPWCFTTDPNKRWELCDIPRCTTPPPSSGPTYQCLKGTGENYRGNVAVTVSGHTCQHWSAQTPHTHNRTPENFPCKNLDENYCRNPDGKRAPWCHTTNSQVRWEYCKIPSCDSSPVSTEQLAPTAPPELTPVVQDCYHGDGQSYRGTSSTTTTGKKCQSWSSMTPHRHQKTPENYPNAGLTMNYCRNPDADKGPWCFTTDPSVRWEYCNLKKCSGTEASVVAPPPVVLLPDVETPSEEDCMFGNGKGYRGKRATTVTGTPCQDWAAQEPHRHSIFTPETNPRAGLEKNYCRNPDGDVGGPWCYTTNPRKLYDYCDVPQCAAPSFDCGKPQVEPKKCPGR

trypsin = target: T4, trypsin (Bos taurus, UniProt P00760)
T4 construct: gene PRSS1
T4 sequence (P00760 24-246): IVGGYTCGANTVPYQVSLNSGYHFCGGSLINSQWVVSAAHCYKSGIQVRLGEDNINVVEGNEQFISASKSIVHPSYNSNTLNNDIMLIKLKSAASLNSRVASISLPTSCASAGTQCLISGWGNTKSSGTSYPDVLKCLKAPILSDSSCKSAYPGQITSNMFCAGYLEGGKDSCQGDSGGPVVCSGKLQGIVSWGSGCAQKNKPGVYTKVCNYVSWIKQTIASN

[1] = test system: neutrophil-induced ECM solubilization
[2] = test system: leukocyte elastase-induced emphysema; conditions: hamsters

B1: Alpha-1-antichymotrypsin: serpin family proteinase inhibitor (protein, UniProt P01011 24-423, looked up)
Alpha-1-antichymotrypsin: HPNSPLDEENLTQENQDRGTHVDLGLASANVDFAFSLYKQLVLKAPDKNVIFSPLSISTALAFLSLGAHNTTLTEILKGLKFNLTETSEAEIHQSFQHLLRTLNQSSDELQLSMGNAMFVKEQLSLLDRFTEDAKRLYGSEAFATDFQDSAAAKKLINDYVKNGTRGKITDLIKDLDSQTMMVLVNYIFFKAKWEMPFDPQDTHQSRFYLSKKKWVMVPMMSLHHLTIPYFRDEELSCTVVELKYTGNASALFILPDQDKMEEVEAMLLPETLKRWRDSLEFREIGELYLPKFSISRDYNLNDILLQLGIEEAFTSKADLSGITGARNLAVSQVVHKAVLDVFEEGTEASAATAVKITLLSALVETRTIVRFNRPFLMIIVPTDTQNIFFMSKVTNPKQA
Proteinase 3
  inhibition of proteinase 3, in words: not proteinase 3
Cathepsin G
  inhibition of cathepsin G, in words: inhibits

B2: Monocyte/neutrophil elastase inhibitor: a serpin family inhibitor (protein, UniProt P30740 1-379, looked up)
Leukocyte elastase inhibitor: MEQLSSANTRFALDLFLALSENNPAGNIFISPFSISSAMAMVFLGTRGNTAAQLSKTFHFNTVEEVHSRFQSLNADINKRGASYILKLANRLYGEKTYNFLPEFLVSTQKTYGADLASVDFQHASEDARKTINQWVKGQTEGKIPELLASGMVDNMTKLVLVNAIYFKGNWKDKFMKEATTNAPFRLNKKDRKTVKMMYQKKKFAYGYIEDLKCRVLELPYQGEELSMVILLPDDIEDESTGLKKIEEQLTLEKLHEWTKPENLDFIEVNVSLPRFKLEESYTLNSDLARLGVQDLFNSSKADLSGMSGARDIFISKIVHKSFVEVNEEGTEAAAATAGIATFCMLMPEENFTADHPFLFFIRHNSSGSILFLGRFSSP
Proteinase 3
  inhibition of proteinase 3, in words: inhibits
Leukocyte elastase
  inhibition of leukocyte elastase, in words: inhibits

B3: placental bikunin: Kunitz family inhibitor; potent inhibitor of plasmin (protein, UniProt O43291 28-252, looked up)
Kunitz-type protease …: ADRERSIHDFCLVSKVVGRCRASMPRWWYNVTDGSCQLFVYGGCDGNSNNYLTKEECLKKCATVTENATGDLATSRNAADSSVPSAPRRQDSEDHSSDMFNYEEYCTANAVTGPCRASFPRWYFDVERNSCNNFIYGGCRGNKNSYRSEEACMLRCFRQQENPPLPLGSKVVVLAGLFVMVLILFLGASMVYLIRVARRNQERALRTVWSSGDDKEQLVKNTYVL
plasmin
  inhibition of plasmin, in words: potent inhibitor
Leukocyte elastase
  inhibition of leukocyte elastase, in words: not leukocyte elastase
chymotrypsin; read-out: Ki, chymotrypsin
  Ki: 0.48 nM
trypsin
  Ki: 0.01 nM

B4: STI: Kunitz family inhibitor of trypsin from soybean (protein, UniProt P01070 25-205, looked up)
Trypsin inhibitor A: DFVLDNEGNPLENGGTYYILSDITAFGGIRAAPTGNERCPLTVVQSRNELDKGIGTIISSPYRIRFIAEGHPLSLKFDSFAVIMLCVGIPTEWSVVEDLPEGPAVKIGENKDAMDGWFRLERVSDDEFNNYKLVFCPQQAEDDKCGDIGISIDHDDGTRRLVVSKNKPLVVQFQKLDKESL
Activated neutrophils
  ET-1 degradation: abolishes ET-1 degradation almost completely
[1]
  inhibition of neutrophil-induced ECM solubilization: completely or nearly completely inhibit
chymotrypsin
  inhibition of chymotrypsin, in words: significantly weaker inhibitor
chymotrypsin; read-out: Ki(1), chymotrypsin
  Ki: 1000 nM
chymotrypsin; read-out: Ki(2), chymotrypsin
  Ki: 300 nM
trypsin
  inhibition of trypsin, in words: potent

B5: Antileukoproteinase (SLPI): member of the mucous proteinase inhibitor family (protein, UniProt P03973 26-132, looked up)
Antileukoproteinase: SGKSFKAGVCPPKKSAQCLRYKKPECQSDWQCPGKKRCCPDTCGIKCLDPVDTPNPTRRKPGKCPVTYGQCLMLNPPNFCEMDGQCKRDLKCCMGMCGKSCVSPVKA
Proteinase 3
  inhibition of proteinase 3, in words: not proteinase 3
Cathepsin G
  inhibition of cathepsin G, in words: not
Leukocyte elastase; read-out: Ki, elastase
  Ki: 0.6 nM

B6: Eglin C: member of the potato inhibitor 1 family from leech Hirudo medicinalis (protein, UniProt P01051 1-70, looked up)
Eglin C: TEFGSELKSFPEVVGKTVDQAREYFTLHYPQYDVYFLPEGSPVTLDLRYNRVRVFYNPGTNVVNHVPHVG
[2]
  protection against leukocyte elastase-induced emphysema / pulmonary hemorrhage: completely protected
Proteinase 3
  inhibition of proteinase 3, in words: only weakly inhibits
Cathepsin G
  Ki: ~0.1 nM
Leukocyte elastase; read-out: Ki, leukocyte elastase
  Ki: 0.37 nM
